Measurements: patent US20160324962A1, “COMPOSITIONS AND METHODS FOR TREATING SARCOMA” (MEDIMMUNE, LLC, priority 2013, published 2016)

Legend:
pS6K = assay: In vivo mechanism of action study, immunoblot of tumors; settings: RD-ES-bearing mice injected with human IGF-1/-2, MEDI-573 pretreatment
Description: IGF-1/-2 injection did change the baseline level of p4EBP-1.
For in vivo mechanism of action (MOA) studies, when tumors reached approximately 400 mm^3, a single dose of MEDI-573 was given. Tumor and plasma samples were collected 4 hr after dosing to assess the effect of MEDI-573 on autocrine IGF signaling. In another set of mice, 6 hr after MEDI-573 dosing, human IGF-1 or IGF-2 was injected by tail-vein. Tumor and plasma samples were collected 15 min after IGFs injection to assess the effect of MEDI-573 on IGF-1/-2 induced signaling.

RD-ES cells [1] = assay: Activation of caspase-3 and caspase-7; assay type: cell-based; settings: increasing concentrations, 48 hours, compared to isotype control
Description: (§1) To evaluate the basis for the cytotoxic effect of MEDI-573 on RD-ES, TC-71, SJSA-1, and KHOS cells, cells were treated with increasing concentrations of MEDI-573 for 48 hours and analyzed by measuring the activation of caspase-3 and caspase-7. […] (Data not shown.)

SJSA-1 cells [2] = assay: Activation of caspase-3 and caspase-7; assay type: cell-based; settings: increasing concentrations, 48 hours, compared to isotype control
Description: as §1

KHOS cells [3] = assay: Activation of caspase-3 and caspase-7; assay type: cell-based; settings: increasing concentrations, 48 hours
Description: as §1

TC-71 cells [4] = assay: Activation of caspase-3 and caspase-7; assay type: cell-based; settings: increasing concentrations, 48 hours, compared to isotype control
Description: as §1

IR-A phosphorylation = assay: pIR-A assay in sarcoma cells (MSD); assay type: cell-based
Description: (§2) When exogenous IGF-1 or IGF-2 was added to cells, there was an induction of phosphorylation of IGF-1R and IR-A in all cells examined.
(§3) The sarcoma lines were cultured overnight in complete medium. The following day, medium containing 0.1% charcoal stripped fetal bovine serum (FBS) was added to the cultures and the cultures incubated overnight. The next day, cells were treated with various treatments for 5 minutes. Media was removed; cells were washed and lysed with 1.0% Triton X lysis buffer with protease and phosphatase inhibitors. Approximately 8-20 μg of total protein was loaded on MSD 96-Well MULTI-SPOT plates and the level of total and phosphorylated IGF-1R, IR-A and IRS-1 protein was determined using the Insulin Signaling Panel (total protein) and Insulin Signaling Panel (phosphoprotein) Whole Cell Lysate kits according to the manufacturers protocol. The level of total and phosphorylated AKT was determined using the Phospho (Ser473)/Total AKT Assay Whole Cell Lysate kit according to manufacturer's standard protocol.

murine IGF-1 = murine IGF-1 (Mus musculus, UniProt P05017); assay: Binding affinity
Sequence of murine IGF-1 (P05017 1-118 limits assumed): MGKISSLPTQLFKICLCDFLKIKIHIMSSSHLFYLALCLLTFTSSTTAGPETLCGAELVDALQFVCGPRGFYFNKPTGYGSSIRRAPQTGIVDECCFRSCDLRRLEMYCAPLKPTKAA

[5] = test system: RD-ES (Ewing's sarcoma) xenografts; assay: Xenograft efficacy study in mice; assay type: in vivo
Excerpt: Although proliferation of SK-ES-1 and SJCRH30 cells was inhibited by MEDI-573 in vitro in the absence of exogenous IGFs, the in vivo growth of these two models was not effected by MEDI-573 treatment.
The combination treatments were tolerated as no significant body weight loss was observed (FIG. 17B).
For in vivo efficacy studies, five million sarcoma cells in 50% matrigel were inoculated subcutaneously into each female athymic nude mice. When tumors reach approximately 150-200 mm^3, mice were randomly assigned into groups (10 mice per group). MEDI-573 was administrated intraperitoneally twice per week at indicated doses. The dose regimen for AZD2014 was oral once every day, for rapamycin was intraperitoneal injection every 3 days. Tumor volumes were measured twice weekly with calipers. Tumor growth inhibition was calculated on the last day of study relative to the initial and final mean tumor volume of the control group.

RD cells = assay: IGF-induced proliferation (CTG); assay type: cell-based
Description: (§4) To access the effect of MEDI-573 on IGF-Induced proliferation, MEDI-573 or isotype control, was added to the cells for 30 minutes at 37° C. IGF-1 or IGF-2 was then added to the appropriate wells and incubated for 3 days. Proliferation was quantified using the CTG reagent.

SJSA-1 cells [6] = assay: IGF-induced proliferation (CTG); assay type: cell-based
Description: as §4

KHOS cells [7] = assay: IGF-induced proliferation (CTG); assay type: cell-based
Description: as §4

SJCRH30 cells = assay: In vitro cell proliferation (CellTiter-Glo), no exogenous IGF; assay type: cell-based; settings: 3 days
Description: (§5) To determine the effect of treatment with MEDI-573 antibody on the growth of tumor cells, three rhabdomyosarcoma cell lines (RD, SJCRH30, and Hs729); three Ewing's sarcoma cell lines (RD-ES, TC-71, and SK-ES-1), and four osteosarcoma cell lines (SJSA-1, KHOS, MG-63, and SAOS2) were treated with MEDI-573, an anti-IGF antibody, in the absence of exogenous IGF-1 or IGF-2.
(§6) Sarcoma cell lines were cultured overnight in regular growth medium. The following day, medium containing 0.1% charcoal stripped fetal bovine serum (FBS) was added and the cells incubated overnight. The next day, cells were treated with various amounts of MEDI-573 and the cultures incubated for 3 days. Proliferation was quantified using the CellTiter-Glo (CTG) reagent (Promega, Madison, Wis.).

MG-63 cells = assay: as above; assay type: cell-based; settings: 3 days
Description: as §5, §6

SAOS2 cells = assay: as above; assay type: cell-based; settings: 3 days
Description: as §5, §6

RD-ES cells [8] = assay: as above; assay type: cell-based; settings: 3 days
Description: as §5, §6

SK-ES-1 cells = assay: as above; assay type: cell-based; settings: 3 days
Description: as §5, §6

Hs729 cells = assay: as above; assay type: cell-based; settings: 3 days
Description: as §5, §6

KHOS cells [9] = assay: as above; assay type: cell-based; settings: 3 days
Description: as §5, §6

TC-71 cells [10] = assay: as above; assay type: cell-based; settings: 3 days
Description: as §5, §6

Akt phosphorylation = assay: pAKT assay in sarcoma cells (MSD); assay type: cell-based; settings: RD-ES, TC-71, SK-ES-1, and SJSA-1 cells
Description: as §2, §3

binding affinity (murine IGF-1): low binding affinity
IGF-1 IC50 (μM) (SJSA-1 cells [6]; SJSA-1 cells stimulated with IGF-1): No Induction
IGF-2 IC50 (μM) (SJSA-1 cells [6]; SJSA-1 cells stimulated with IGF-2): No Induction
IC50 (SK-ES-1 cells): 3.2 µM
B1: MEDI-573: fully human monoclonal IgG2 lambda antibody that binds IGF-2 with cross reactivity to IGF-1; hybridoma 7.159.2, ATCC PTA-7424 (antibody)
heavy: QVQLVQSGAEVKKPGASVKVSCKASGYTFTSYDINWVRQATGQGLEWMGWMNPNSGNTGYAQKFQGRVTMTRNTSISTAYMELSSLRSEDTAVYYCARDPYYYYYGMDVWGQGTTVTVSSASTKGPSVFPLAPCSRSTSESTAALGCLVKDYFPEPVTVSWNSGALTSGVHTFPAVLQSSGLYSLSSVVTVPSSNFGTQTYTCNVDHKPSNTKVDKTVERKCCVECPPCPAPPVAGPSVFLFPPKPKDTLMISRTPEVTCVVVDVSHEDPEVQFNWYVDGVEVHNAKTKPREEQFNSTFRVVSVLTVVHQDWLNGKEYKCKVSNKGLPAPIEKTISKTKGQPREPQVYTLPPSREEMTKNQVSLTCLVKGFYPSDIAVEWESNGQPENNYKTTPPMLDSDGSFFLYSKLTVDKSRWQQGNVFSCSVMHEALHNHYTQKSLSLSPGK
light: QSVLTQPPSVSAAPGQKVTISCSGSSSNIENNHVSWYQQLPGTAPKLLIYDNNKRPSGIPDRFSGSKSGTSATLGITGLQTGDEADYYCETWDTSLSAGRVFGGGTKLTVLGQPKAAPSVTLFPPSSEELQANKATLVCLISDFYPGAVTVAWKADSSPVKAGVETTTPSKQSNNKYAASSYLSLTPEQWKSHRSYSCQVTHEGSTVEKTVAPTECS
IGF-induced pS6K in tumors (pS6K): dramatic reduction
caspase-3/-7 activities (RD-ES cells [1]): increased caspase-3/-7 activities in a dose-dependent manner
caspase-3/-7 activities (SJSA-1 cells [2]): increased caspase-3/-7 activities in a dose-dependent manner
caspase-3/-7 activities (KHOS cells [3]): No activation of caspase-3/-7 was detected
caspase-3/-7 activities (TC-71 cells [4]): increased caspase-3/-7 activities in a dose-dependent manner
autophosphorylation of IR-A (IR-A phosphorylation; KHOS cells): not in KHOS cells
autophosphorylation of IR-A (IR-A phosphorylation; RD-ES, TC-71, SK-ES-1, and SJSA-1 cells): inhibited autophosphorylation
IGF-1/-2-induced activation of IR-A (IR-A phosphorylation; pretreatment with MEDI-573, exogenous IGF-1 or IGF-2): inhibited
tumor growth inhibition ([5]; RD-ES xenograft model, AZD2014 combination study (FIG. 16A)): 52%
tumor growth inhibition ([5]; RD-ES xenograft model, rapamycin combination study (FIG. 17A)): 59%
tumor growth inhibition ([5]; RD-ES xenografts, 10 mg/kg twice weekly intraperitoneally): 25%
tumor growth inhibition ([5]; RD-ES xenografts, 30 mg/kg twice weekly intraperitoneally): 44%
tumor growth inhibition ([5]; RD-ES xenografts, 60 mg/kg twice weekly intraperitoneally): 52%
IGF-1 IC50 (μM) (RD cells; RD cells stimulated with IGF-1): No Induction
IGF-2 IC50 (μM) (RD cells; RD cells stimulated with IGF-2): No Induction
effect on growth (RD cells; RD cells, with or without IGF stimulation): failed to have any significant effect
IGF-1 IC50 (μM) (KHOS cells [7]; KHOS cells stimulated with IGF-1): No Induction
IGF-2 IC50 (μM) (KHOS cells [7]; KHOS cells stimulated with IGF-2): No Induction
effect on growth (KHOS cells [7]; KHOS cells, with or without IGF stimulation): failed to have any significant effect
IC50 (SJCRH30 cells): 3.2 µM
IC50 (μM) (MG-63 cells): Inactive
IC50 (μM) (SAOS2 cells): Inactive
IC50 (RD-ES cells [8]): 6.9 µM
IC50 (μM) (Hs729 cells): Inactive
IC50 (μM) (KHOS cells [9]): Inactive
IC50 (TC-71 cells [10]): 2.7 µM
IGF-1 and IGF-2 stimulated phosphorylation of Akt (Akt phosphorylation): blocks this effect
autophosphorylation of Akt (Akt phosphorylation): inhibited autophosphorylation
